Read-outs that look alike come from different tables or passages of the source.
Tests used:
[1] = biological target: T1, coagulation factor IXa (FIXa) (Homo sapiens) (UniProt P00740+P00740); details: 2'-F pyrimidines, 2'-OH purines; physiologic salt and pH, 37 C
[2] = biological target: activated protein C (APC) (UniProt P04070+P04070); details: 2'-F pyrimidines, 2'-OH purines; <10% RNA bound at up to 5 uM protein; >5000-fold specificity
[3] = biological target: T2, coagulation factor Xa (FXa) (Homo sapiens) (UniProt P00742+P00742); details: 2'-F pyrimidines, 2'-OH purines; <10% RNA bound at up to 5 uM protein; >5000-fold specificity
[4] = biological target: coagulation factor XIa (FXIa) (UniProt P03951+P03951); details: 2'-F pyrimidines, 2'-OH purines; <10% RNA bound at up to 5 uM protein; >5000-fold specificity
[5] = biological target: coagulation factor VIIa (FVIIa) (UniProt P08709+P08709); details: 2'-F pyrimidines, 2'-OH purines; <10% RNA bound at up to 5 uM protein; >5000-fold specificity
[6] = biological target: T1, coagulation factor IXa (FIXa) (Homo sapiens); experiment: competition; details: 2'-F pyrimidines, 2'-OH purines; 3-nt 2'-OMe 3' tail; comparable to 9.3t
[7] = biological target: T2, coagulation factor Xa (FXa) (Homo sapiens); details: 2'-F pyrimidines?
[8] = biological target: T2, coagulation factor Xa (FXa) (Homo sapiens); details: 2'-F pyrimidines?; versus 11F7t; no anticoagulant activity in PT or APTT

Sequence “AUGGGGACUAUACCGCGUAAUGCUGCCUCCCCAUN [9.3t]” has a Kd [1] of 0.6 nM, a Kd [2] of over 5000 nM and a Kd [3] of over 5000 nM. For the same sequence, the Kd [4] was over 5000 nM and the Kd [5] was over 5000 nM.

With “AUGGGGACUAUACCGCGUAAUGCUGCCUCCCCAUN [9.3t-3NT]” the Kd [6] was under 1.5 nM.

With “GAGAGCCCCAGCGAGAUAAUACUUGGCCCCGCUCUUN [11F7t]” the Kd [7] was 1.5 nM.

In the case of “GAGAGCCCCAGCGAGAUAAUACUUGUACCCGCUCUUN [11F7tM]”, the binding signal (fold loss of affinity) [8] is reported as over 1300.

Reference: US20030083294
